Measurements published in paper PMC6716676, “Chemokine signaling links cell-cycle progression and cilia formation for left–right symmetry breaking” (PLoS Biology, 2019).
Changes are numbered by the printed parent chain. Names may count otherwise. Each block holds one molecule with its values, some of them ahead of it.

Experiments:
[1] = target: zFoxj1a (zebrafish Foxj1a) (UniProt F1QDF8); test: co-IP of Flag- and HA-tagged zFoxj1a; details: reference: wild type (both tagged copies); sites T102
[2] = target: the molecule itself; test: native gel or EMSA; whole-cell lysates of HEK293T cells with overexpressed Flag-tagged zFoxj1a or its mutants separated on SDS- and native PAGEs

binding against the reference [1]: weaker
Molecule: zFoxj1a (zebrafish Foxj1a) (from UniProt F1QDF8) T102A (both tagged copies)

B1: Flag-zFoxj1a (zebrafish forkhead box j1a) (natural protein, UniProt F1QDF8 1-458, looked up)
chain: MLSMSSMDPWPEGSVGLEEEVVTAAAQAERLDTSTPLQCNTSLDSDNLDDSLTSLQWLQEFSILNASTGQHTSPSSHSHLMGSDAPSSPLAGDPASIGMPLTPGKPTAASFCRVPMFSALPSLVAHGHCPDEVDYKSNPHIKPPYSYATLICMAMQASKKTKITLSCIYKWITDNFCYFRHADPTWQNSIRHNLSLNKCFIKVPRQKDEPGKGGFWKIDPQYAERLLNGAYKKRRLPPVQINPALQHRLRMNAQATGVISRNLSVSPESQQLLKDFEEATSADQNWDPRLAEATMLSCWISGKGTNKRKQPYNHRTGKTPRRSSSPLLVMDEQEDLSSLRGNFDWDALLDSALNGELSLNEGSPLSPTPQDEELMIRGTHISPQEAPVENHVLMETQRSGDEDFDEETFLATAFLQSPWSEVDESNRSDFLGSSTVSIDQLFDLSFGGDLSSKIETLL
notes: forkhead box j1a (Foxj1a), zebrafish; In the self-association co-IP the second copy carried an HA tag instead of Flag (HA-zFoxj1a); also called Flag-tagged zFoxj1a; wild-type zFoxj1a; source: HEK293T, transfected, in lysate
stoichiometry N [2]: 2

B2: Flag-zFoxj1a-T102D (natural protein, zebrafish, UniProt F1QDF8 1-458, looked up)
chain: B1 chain with T102D
notes: forkhead box j1a (Foxj1a), zebrafish; In the self-association co-IP the second copy was differently tagged (HA); also called phospho-mimicking mutant of zFoxj1a; T102D mutant; source: HEK293T, transfected, in lysate
stoichiometry N [2]: 2
